In patent publication US20250270301A1 (GEN2 NEUROSCIENCE, published 2025):
Where two headings read alike, the source gives them in different places.

Legend:
[1] = molecular target: T1, full length recombinant human 2N4R tau (human, UniProt P10636 1-758); experiment: SPR SCK, IgG on Protein A, tau in flow
T1 construct: bought from rPeptide; pHrodo Red maleimide-labelled where it stands in uptake assays; also called tau1-441; full length tau
Method: 21.5 Assessment of antibody binding to tau (Biacore SCK analysis): Binding of anti-tau hIgG1 to full length recombinant 2N4R tau (Rpeptide; SEQ ID NO: 2) was assessed using the Biacore T200 (GE Healthcare, Chicago, IL, USA) running Biacore T200 Evaluation Software V2.0.1. hIgG1 were immobilised on a Protein A capture sensor chip in running buffer (HBS-EP+ buffer containing 1 mg/mL BSA) at 25° C., captured to ˜50 RU at 10 μL/min. For single-cycle kinetics experiments, recombinant 2N4R tau was flowed at concentrations ranging from 1.25 nM to 10 nM (2-fold dilutions) with an association time of 60 s and a dissociation time of 200 s. Curves were compared to a reference cell that was mock immobilized (no antibody present).

Bovine serum albumin = molecular target: T2, Bovine serum albumin (bovine, UniProt P02769 25-607); experiment: ELISA on 1% BSA, HEK supernatant, anti-human IgG-HRP, n=1
T2 construct: also called BSA
T2 sequence (P02769 25-607 limits assumed): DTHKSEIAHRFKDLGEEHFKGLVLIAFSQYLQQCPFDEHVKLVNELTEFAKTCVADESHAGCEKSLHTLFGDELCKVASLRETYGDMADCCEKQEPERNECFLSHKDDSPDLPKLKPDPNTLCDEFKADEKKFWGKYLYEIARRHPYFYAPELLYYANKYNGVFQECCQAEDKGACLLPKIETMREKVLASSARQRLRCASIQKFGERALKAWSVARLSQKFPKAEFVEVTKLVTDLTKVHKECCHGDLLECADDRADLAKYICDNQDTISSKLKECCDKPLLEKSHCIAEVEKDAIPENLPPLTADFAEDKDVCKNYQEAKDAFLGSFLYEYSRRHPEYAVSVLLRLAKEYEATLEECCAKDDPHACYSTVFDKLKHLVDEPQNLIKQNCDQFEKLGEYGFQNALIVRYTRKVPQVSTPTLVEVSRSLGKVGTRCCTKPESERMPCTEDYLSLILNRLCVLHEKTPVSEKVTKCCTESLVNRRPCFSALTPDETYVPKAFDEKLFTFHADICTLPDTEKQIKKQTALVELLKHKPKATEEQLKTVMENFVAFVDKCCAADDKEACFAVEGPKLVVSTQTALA
Method: FIG. 7. A panel of humanised anti-tau IgG bind to full length recombinant 2N4R tau in an ELISA format. Supernatants from HEK cells transiently transfected with each IgG clone were tested at 1:100 for binding to full length recombinant 2N4R tau (solid bars). […] Binding of anti-tau hIgG1 was detected using an HRP-conjugated anti-human secondary antibody and data are shown from a representative experiment (n=1 replicate).
Antigen was removed from wells and the plates were then blocked for 1 hour at RT with 5% dried milk in 1×TBS. Blocking solution was removed, HEK293 cell supernatant (1:100 in 1% BSA/1×TBS) was added to relevant wells, and plates were incubated for 1 hour at RT with gentle shaking. Plates were then washed four times with TBS/0.1% Tween (TBST). Goat anti-human IgG-HRP antibody (Thermo Fisher Scientific, Waltham, MA, USA), diluted 1:2000 in 5% milk/TBS, was added to each well and plates were incubated for 1 hour at RT with gentle shaking before being washed four times with TBST. 3,3′,5,5′-tetramethylbenzidine (TMB) ELISA solution was added to each well and plates were incubated for 15 mins at RT. An equal volume of 1 M sulfuric acid was added to each well and OD was measured at 450 nm.

[2] = molecular target: T1, full length recombinant human 2N4R tau; experiment: SPR SCK, IgG on Protein A, tau in flow; remark: listed apart in the source

T1 sequence (P10636 other isoform, or with tags, fused parts or gaps limits assumed): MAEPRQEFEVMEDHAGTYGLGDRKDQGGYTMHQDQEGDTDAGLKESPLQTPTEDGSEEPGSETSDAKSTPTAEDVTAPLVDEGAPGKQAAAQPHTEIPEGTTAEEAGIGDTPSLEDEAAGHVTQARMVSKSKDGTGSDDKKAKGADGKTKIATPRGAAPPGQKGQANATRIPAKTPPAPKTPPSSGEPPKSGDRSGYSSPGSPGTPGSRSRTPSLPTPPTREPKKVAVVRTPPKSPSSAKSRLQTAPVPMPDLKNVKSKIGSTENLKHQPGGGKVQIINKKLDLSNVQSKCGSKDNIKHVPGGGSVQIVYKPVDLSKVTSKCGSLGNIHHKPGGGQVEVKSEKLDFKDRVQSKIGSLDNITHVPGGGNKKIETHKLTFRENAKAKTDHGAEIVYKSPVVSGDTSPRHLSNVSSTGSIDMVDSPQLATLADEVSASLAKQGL

B1: #44 VH3VK2 humanised hIgG1 (antibody, V domains shown)
VH: QVQLQESGPGLVKPSETLSLTCTVSGIDLSSYAMAWVRQAPGKGLEWIGCIDRRGGTFYASWVKGRFTISKTSTTVDLQMTSLTAEDTATYFCARDSGAFDPWGQGTLVTVSS
VL: QIVMTQSPSSLSASVGDRVTITCQASQSVYDNYLAWYQQKPGQPPKLLIHAASNLASGVPSRFKGSGSGTEFTLTISSLQPDDFATYYCLGEFSCTTTDCNVFGGGTKVEIK
notes: also called VH3Vκ2
For B1, the Kd [1] was 7.64 nM, the “Relative KD (to VH0VK0)” value [1] was 1.99 and the koff [1] was 0.0356 s⁻¹. The kon [1] was 4.66e+06 M⁻¹ s⁻¹ and the binding result (Bovine serum albumin) was “no binding (tested: supernatant 1:100)”.

B2: #44 VH3VK1 humanised hIgG1 (antibody, V domains shown)
VH: QVQLQESGPGLVKPSETLSLTCTVSGIDLSSYAMAWVRQAPGKGLEWIGCIDRRGGTFYASWVKGRFTISKTSTTVDLQMTSLTAEDTATYFCARDSGAFDPWGQGTLVTVSS
VL: QIVMTQSPSSLSASVGDRVTITCQASQSVYDNYLAWYQQKPGQPPKLLIHAASNLASRVPSRFKGSGSGTEFTLTISSLQCDDFATYYCLGEFSCTTTDCNVFGGGTEVVIK
notes: also called VH3Vκ1
In the case of B2, the Kd [1] is reported as 4.35 nM, the “Relative KD (to VH0VK0)” value [1] is reported as 1.14 and the koff [1] is reported as 0.0121 s⁻¹. For the same binder, the kon [1] was 2.79e+06 M⁻¹ s⁻¹ and the binding result (Bovine serum albumin) was “no binding (tested: supernatant 1:100)”.

B3: #44 VH4VK1 humanised hIgG1 (antibody, V domains shown)
VH: QVQLQESGPGLVKPSETLSLTCTVSGIDLSSYAMAWVRQAPGKGLEWIGCIDRRGGTFYASWVKGRFTISKDTSKTTVDLQMTSLTAEDTATYFCARDSGAFDPWGQGTLVTVSS
VL: QIVMTQSPSSLSASVGDRVTITCQASQSVYDNYLAWYQQKPGQPPKLLIHAASNLASRVPSRFKGSGSGTEFTLTISSLQCDDFATYYCLGEFSCTTTDCNVFGGGTEVVIK
notes: also called VH4Vκ1
B3 was tested, and the Kd [1] was 6.81 nM, the “Relative KD (to VH0VK0)” value [1] was 1.78 and the koff [1] was 0.03 s⁻¹. For the same binder, the kon [1] was 4.4e+06 M⁻¹ s⁻¹ and the binding result (Bovine serum albumin) was “no binding (tested: supernatant 1:100)”.

B4: #44 VH6VK2 humanised hIgG1 (antibody, V domains shown)
VH: QVQLQESGPGLVKPSETLSLTCTVSGIDLSSYAMSWVRQAPGKGLEWVSCIDRRGGTFYASWVKGRFTISRDNSKNTLDLQMTSLTAEDTATYYCARDSGAFDPWGQGTLVTVSS
VL: QIVMTQSPSSLSASVGDRVTITCQASQSVYDNYLAWYQQKPGQPPKLLIHAASNLASGVPSRFKGSGSGTEFTLTISSLQPDDFATYYCLGEFSCTTTDCNVFGGGTKVEIK
notes: also called VH6Vκ2
B4: no binding (tested: supernatant 1:100) (Bovine serum albumin).

B5: #44 VH6VK3 humanised hIgG1 (antibody, V domains shown)
VH: QVQLQESGPGLVKPSETLSLTCTVSGIDLSSYAMSWVRQAPGKGLEWVSCIDRRGGTFYASWVKGRFTISRDNSKNTLDLQMTSLTAEDTATYYCARDSGAFDPWGQGTLVTVSS
VL: DIQMTQSPSSLSASVGDRVTITCQASQSVYDNYLAWYQQKPGQPPKLLIHAASNLASGVPSRFKGSGSGTEFTLTISSLQPDDFATYYCLGEFSCTTTDCNVFGGGTKVEIK
notes: also called VH6Vκ3
B5: no binding (tested: supernatant 1:100) (Bovine serum albumin).

B6: #44 VH6VK4 humanised hIgG1 (antibody, V domains shown)
VH: QVQLQESGPGLVKPSETLSLTCTVSGIDLSSYAMSWVRQAPGKGLEWVSCIDRRGGTFYASWVKGRFTISRDNSKNTLDLQMTSLTAEDTATYYCARDSGAFDPWGQGTLVTVSS
VL: DIQMTQSPSSLSASVGDRVTITCQASQSVYDNYLAWYQQKPGQPPKLLIHAASNLASGVPSRFSGSGSGTEFTLTISSLQPDDFATYYCLGEFSCTTTDCNVFGGGTKVEIK
notes: also called VH6Vκ4
B6: no binding (tested: supernatant 1:100) (Bovine serum albumin).

B7: #44_VH4VK4_H06-H01/pVL (antibody, V domains shown)
VH: QVQLQESGPGLVKPSETLSLTCTVSGIDLSSYAMAWVRQAPGKGLEWIGVIDAAGHTFYASWVKGRFTISKDTSKTTVDLQMTSLTAEDTATYFCARDVGSFDVWGQGTLVTVSS
VL: DIQMTQSPSSLSASVGDRVTITCQASQSVYDNYLAWYQQKPGQPPKLLIHAASNLASGVPSRFSGSGSGTEFTLTISSLQPDDFATYYCLGEFSCTTTDCNVFGGGTKVEIK
notes: also called H06-01/pVL; Clone VH4H_06_H01
For B7, the “Fold change (KD, to pVH/pVL)” value [2] was 1.71, the Kd [2] was 3.85 nM and the koff [2] was 0.0121 s⁻¹. The kon [2] was 3.15e+06 M⁻¹ s⁻¹.

B8: #44_VH4VK4_H06-H02/pVL (antibody, V domains shown)
VH: QVQLQESGPGLVKPSETLSLTCTVSGIDLSSYAMAWVRQAPGKGLEWIGVIDAAGHTFYASWVKGRFTISKDTSKTTVDLQMTSLTAEDTATYFCARDRGDFDVWGQGTLVTVSS
VL: DIQMTQSPSSLSASVGDRVTITCQASQSVYDNYLAWYQQKPGQPPKLLIHAASNLASGVPSRFSGSGSGTEFTLTISSLQPDDFATYYCLGEFSCTTTDCNVFGGGTKVEIK
notes: also called H06-02/pVL; Clone VH4_H06_H02
In the case of B8, the “Fold change (KD, to pVH/pVL)” value [2] is reported as 7.73, the Kd [2] is reported as 0.851 nM and the koff [2] is reported as 0.00489 s⁻¹. It also gave a kon [2] of 5.75e+06 M⁻¹ s⁻¹.

B9: #44_VH4VK4_H06-H04/pVL (antibody, V domains shown)
VH: QVQLQESGPGLVKPSETLSLTCTVSGIDLSSYAMAWVRQAPGKGLEWIGVIDAAGHTFYASWVKGRFTISKDTSKTTVDLQMTSLTAEDTATYFCARDAGSFHPWGQGTLVTVSS
VL: DIQMTQSPSSLSASVGDRVTITCQASQSVYDNYLAWYQQKPGQPPKLLIHAASNLASGVPSRFSGSGSGTEFTLTISSLQPDDFATYYCLGEFSCTTTDCNVFGGGTKVEIK
notes: also called H06-04/pVL; Clone VH4_H06_H04
In the case of B9, the “Fold change (KD, to pVH/pVL)” value [2] is reported as 9.11, the Kd [2] is reported as 0.722 nM and the koff [2] is reported as 0.00443 s⁻¹. For the same binder, the kon [2] was 6.14e+06 M⁻¹ s⁻¹.

B10: #44_VH4VK4_H16-H04/pVL (antibody, V domains shown)
VH: QVQLQESGPGLVKPSETLSLTCTVSGIDLSSYAMAWVRQAPGKGLEWIGAIDRAGNTFYASWVKGRFTISKDTSKTTVDLQMTSLTAEDTATYFCARDAGSFHPWGQGTLVTVSS
VL: DIQMTQSPSSLSASVGDRVTITCQASQSVYDNYLAWYQQKPGQPPKLLIHAASNLASGVPSRFSGSGSGTEFTLTISSLQPDDFATYYCLGEFSCTTTDCNVFGGGTKVEIK
notes: also called Clone VH4_H16_H04; #44_VH4_H16-H04
B10 was tested, and the “Fold change (KD, to pVH/pVL)” value [2] was 7.88, the Kd [2] was 0.835 nM and the koff [2] was 0.00417 s⁻¹. The kon [2] was 4.99e+06 M⁻¹ s⁻¹.

B11: #44_VH4_H07/L2 (antibody, V domains shown)
VH: QVQLQESGPGLVKPSETLSLTCTVSGIDLSSYAMAWVRQAPGKGLEWIGAIDAAGNTFYASWVKGRFTISKDTSKTTVDLQMTSLTAEDTATYFCARDSGAFDPWGQGTLVTVSS
VL: DIQMTQSPSSLSASVGDRVTITCQASQSVYDNYLAWYQQKPGQPPKLLIHAASNLASGVPSRFSGSGSGTEFTLTISSLQPDDFATYYCLGEFSCQDTDCNVFGGGTKVEIKR
notes: also called Clone VH4_H07/L2
In the case of B11, the “Fold change (KD, to pVH/pVL)” value [2] is reported as 0.26, the Kd [2] is reported as 24.9 nM and the koff [2] is reported as 0.0124 s⁻¹. For the same binder, the kon [2] was 497000 M⁻¹ s⁻¹.

B12: #44_VH4_H06/L2 (antibody, V domains shown)
VH: QVQLQESGPGLVKPSETLSLTCTVSGIDLSSYAMAWVRQAPGKGLEWIGVIDAAGHTFYASWVKGRFTISKDTSKTTVDLQMTSLTAEDTATYFCARDSGTFDPWGQGTLVTVSS
VL: DIQMTQSPSSLSASVGDRVTITCQASQSVYDNYLAWYQQKPGQPPKLLIHAASNLASGVPSRFSGSGSGTEFTLTISSLQPDDFATYYCLGEFSCQDTDCNVFGGGTKVEIKR
notes: also called Clone VH4_H06/L2
For B12, the “Fold change (KD, to pVH/pVL)” value [2] was 3.54, the Kd [2] was 1.86 nM and the koff [2] was 0.00841 s⁻¹. For the same binder, the kon [2] was 4.52e+06 M⁻¹ s⁻¹.

B13: #44_VH4_H09/L2 (antibody, V domains shown)
VH: QVQLQESGPGLVKPSETLSLTCTVSGIDLSSYAMAWVRQAPGKGLEWIGAIDARGNTFYASWVKGRFTISKDTSKTTVDLQMTSLTAEDTATYFCARDSGAFDPWGQGTLVTVSS
VL: DIQMTQSPSSLSASVGDRVTITCQASQSVYDNYLAWYQQKPGQPPKLLIHAASNLASGVPSRFSGSGSGTEFTLTISSLQPDDFATYYCLGEFSCQDTDCNVFGGGTKVEIKR
notes: also called Clone VH4_H09/L2
B13 was tested, and the “Fold change (KD, to pVH/pVL)” value [2] was 0.45, the Kd [2] was 14.6 nM and the koff [2] was 0.0106 s⁻¹. The kon [2] was 728000 M⁻¹ s⁻¹.

B14: #44_VH4_H13/L2 (antibody, V domains shown)
VH: QVQLQESGPGLVKPSETLSLTCTVSGIDLSSYAMAWVRQAPGKGLEWIGAIDSAGNTFYASWVKGRFTISKDTSKTTVDLQMTSLTAEDTATYFCARDSGAFDPWGQGTLVTVSS
VL: DIQMTQSPSSLSASVGDRVTITCQASQSVYDNYLAWYQQKPGQPPKLLIHAASNLASGVPSRFSGSGSGTEFTLTISSLQPDDFATYYCLGEFSCQDTDCNVFGGGTKVEIKR
notes: also called Clone VH4_H13/L2
With B14 the “Fold change (KD, to pVH/pVL)” value [2] was 0.28, the Kd [2] was 23.5 nM and the koff [2] was 0.00844 s⁻¹. It also gave a kon [2] of 358000 M⁻¹ s⁻¹.

B15: #44_VH4_H14/L2 (antibody, V domains shown)
VH: QVQLQESGPGLVKPSETLSLTCTVSGIDLSSYAMAWVRQAPGKGLEWIGAIDSAGSTFYASWVKGRSTISKDTSKTTVDLQMTSLTAEDTATYFCARDSGAFDPWGQGTLVTVSS
VL: DIQMTQSPSSLSASVGDRVTITCQASQSVYDNYLAWYQQKPGQPPKLLIHAASNLASGVPSRFSGSGSGTEFTLTISSLQPDDFATYYCLGEFSCQDTDCNVFGGGTKVEIKR
notes: also called Clone VH4_H14/L2
With B15 the “Fold change (KD, to pVH/pVL)” value [2] was 0.52, the Kd [2] was 12.6 nM and the koff [2] was 0.0161 s⁻¹. The kon [2] was 1.28e+06 M⁻¹ s⁻¹.
